# B1: Double-strand break repair protein MRE11 (Saccharomyces cerevisiae), P32829 (parent)
# chain: MDYPDPDTIRILITTDNHVGYNENDPITGDDSWKTFHEVMMLAKNNNVDMVVQSGDLFHVNKPSKKSLYQVLKTLRLCCMGDKPCELELLSDPSQVFHYDEFTNVNYEDPNFNISIPVFGISGNHDDASGDSLLCPMDILHATGLINHFGKVIESDKIKVVPLLFQKGSTKLALYGLAAVRDERLFRTFKDGGVTFEVPTMREGEWFNLMCVHQNHTGHTNTAFLPEQFLPDFLDMVIWGHEHECIPNLVHNPIKNFDVLQPGSSVATSLCEAEAQPKYVFILDIKYGEAPKMTPIPLETIRTFKMKSISLQDVPHLRPHDKDATSKYLIEQVEEMIRDANEETKQKLADDGEGDMVAELPKPLIRLRVDYSAPSNTQSPIDYQVENPRRFSNRFVGRVANGNNVVQFYKKRSPVTRSKKSGINGTSISDRDVEKLFSESGGELEVQTLVNDLLNKMQLSLLPEVGLNEAVKKFVDKDEKTALKEFISHEISNEVGILSTNEEFLRTDDAEEMKALIKQVKRANSVRPTPPKENDETNFAFNGNGLDSFRSSNREVRTGSPDITQSHVDNESRITHISQAESSKPTSKPKRVRTATKKKIPAFSDSTVISDAENELGDNNDAQDDVDIDENDIIMVSTDEEDASYGLLNGRKTKTKTRPAASTKTASRRGKGRASRTPKTDILGSLLAKKRK
# partner: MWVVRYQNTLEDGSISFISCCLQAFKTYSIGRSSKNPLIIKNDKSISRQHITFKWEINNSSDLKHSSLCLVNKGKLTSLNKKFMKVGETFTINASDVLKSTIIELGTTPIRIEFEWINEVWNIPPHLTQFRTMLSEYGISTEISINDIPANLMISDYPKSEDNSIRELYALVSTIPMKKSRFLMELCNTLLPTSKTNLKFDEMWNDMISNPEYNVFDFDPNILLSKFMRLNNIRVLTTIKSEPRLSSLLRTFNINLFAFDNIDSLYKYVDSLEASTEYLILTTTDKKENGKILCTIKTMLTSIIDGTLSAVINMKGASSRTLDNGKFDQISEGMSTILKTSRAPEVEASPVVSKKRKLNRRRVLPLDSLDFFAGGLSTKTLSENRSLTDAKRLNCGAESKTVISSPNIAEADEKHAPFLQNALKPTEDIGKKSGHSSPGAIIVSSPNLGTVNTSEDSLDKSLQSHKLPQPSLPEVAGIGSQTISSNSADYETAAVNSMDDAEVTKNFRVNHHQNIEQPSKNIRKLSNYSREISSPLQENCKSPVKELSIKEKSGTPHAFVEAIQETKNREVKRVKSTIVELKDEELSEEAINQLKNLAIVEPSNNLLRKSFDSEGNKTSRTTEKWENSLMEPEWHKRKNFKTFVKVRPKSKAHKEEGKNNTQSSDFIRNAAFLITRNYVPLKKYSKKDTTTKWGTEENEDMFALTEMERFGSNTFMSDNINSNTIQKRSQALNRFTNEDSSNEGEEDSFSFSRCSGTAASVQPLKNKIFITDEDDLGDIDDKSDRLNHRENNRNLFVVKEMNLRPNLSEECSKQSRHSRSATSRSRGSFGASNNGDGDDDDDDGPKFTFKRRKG
# Variants of: B1
# Details: with xrs2_yeast XRS2, P33301
row,Variant,effect of a mutation on the interaction
1,R76A,disrupting interaction strength
2,R76K,disrupting interaction strength

# Now from value to variant:
row,effect of a mutation on the interaction,Variant
1,disrupting interaction strength,D109G
2,disrupting interaction strength,N113S

# — IntAct's records for PubMed 22705791
